Assay results reported in paper PMC11077047, “Activation of zinc uptake regulator by zinc binding to three regulatory sites”.
Residue numbers refer to the chain shown, from its start.

Tests used:
[1] = molecular target: T1, Zur H36A H36A (Streptomyces coelicolor) (UniProt Q9L2H5); test: DNase I footprinting; conditions: ITC: 20 mM HEPES pH 7.8, 150 mM NaCl, 0.5 mM TCEP, 25 C. EMSA: 20 mM Tris-HCl pH 7.8, 150 mM NaCl, 5 mM DTT, 0.1 mg/ml BSA, 5% glycerol, 0.1 ug poly(dI-dC) per …
T1 sequence: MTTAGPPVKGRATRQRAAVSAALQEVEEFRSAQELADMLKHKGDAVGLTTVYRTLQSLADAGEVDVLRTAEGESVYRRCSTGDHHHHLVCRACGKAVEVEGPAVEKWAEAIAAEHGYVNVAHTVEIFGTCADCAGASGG

[2] = molecular target: T2, Zur (ScZur) wild type (Streptomyces coelicolor) (UniProt Q9L2H5); test: DNase I footprinting; conditions: ITC: 20 mM HEPES pH 7.8, 150 mM NaCl, 0.5 mM TCEP, 25 C. EMSA: 20 mM Tris-HCl pH 7.8, 150 mM NaCl, 5 mM DTT, 0.1 mg/ml BSA, 5% glycerol, 0.1 ug poly(dI-dC) per …
T2 sequence: T1 sequence with A36H

Zur (ScZur) wild type [3] = molecular target: T3, Zur (ScZur) wild type (Streptomyces coelicolor, UniProt Q9L2H5 1-139); test: EMSA; 400 nM Zur, 0-5 uM zinc; saturating state switched (tetramer); ITC: 20 mM HEPES pH 7.8, 150 mM NaCl, 0.5 mM TCEP, 25 C. EMSA: 20 mM Tris-HCl pH 7.8, 150 mM NaCl, 5 mM DTT, 0.1 mg/ml BSA, 5% glycerol, 0.1 ug poly(dI-dC) per; conditions: protein: recombinant; chain copies: 2; label: 6-FAM; blunt
T3 sequence: T1 sequence with A36H

Zur H36A [4] = molecular target: T4, Zur H36A (Streptomyces coelicolor, UniProt Q9L2H5 1-139, H36A); test: ITC; 4.0 eq Zn2+ per Zur dimer; N=2.0 dimers per DNA; K=3.3e5 M-1; ITC: 20 mM HEPES pH 7.8, 150 mM NaCl, 0.5 mM TCEP, 25 C. EMSA: 20 mM Tris-HCl pH 7.8, 150 mM NaCl, 5 mM DTT, 0.1 mg/ml BSA, 5% glycerol, 0.1 ug poly(dI-dC) per; conditions: protein: recombinant; chain copies: 2; label: 6-FAM in EMSA; blunt
T4 sequence: T1 sequence

Zur (ScZur) wild type [5] = molecular target: T3, Zur (ScZur) wild type; test: ITC; 4.0 eq Zn2+ per Zur dimer; N=2.1 dimers per DNA; K=8.7e5 M-1; ITC: 20 mM HEPES pH 7.8, 150 mM NaCl, 0.5 mM TCEP, 25 C. EMSA: 20 mM Tris-HCl pH 7.8, 150 mM NaCl, 5 mM DTT, 0.1 mg/ml BSA, 5% glycerol, 0.1 ug poly(dI-dC) per; conditions: protein: recombinant; chain copies: 2; label: 6-FAM in EMSA; blunt
Zur H36A [6] = molecular target: T4, Zur H36A; test: ITC; 4.0 eq Zn2+ per Zur dimer; N=3.1 dimers per DNA; K=2.6e5 M-1; ITC: 20 mM HEPES pH 7.8, 150 mM NaCl, 0.5 mM TCEP, 25 C. EMSA: 20 mM Tris-HCl pH 7.8, 150 mM NaCl, 5 mM DTT, 0.1 mg/ml BSA, 5% glycerol, 0.1 ug poly(dI-dC) per; conditions: protein: recombinant; chain copies: 2; label: 6-FAM in EMSA; blunt
Zur (ScZur) wild type [7] = molecular target: T3, Zur (ScZur) wild type; test: ITC; 4.0 eq Zn2+ per Zur dimer; N=3.1 dimers per DNA; K=1.8e6 M-1; ITC: 20 mM HEPES pH 7.8, 150 mM NaCl, 0.5 mM TCEP, 25 C. EMSA: 20 mM Tris-HCl pH 7.8, 150 mM NaCl, 5 mM DTT, 0.1 mg/ml BSA, 5% glycerol, 0.1 ug poly(dI-dC) per; conditions: protein: recombinant; chain copies: 2; label: 6-FAM in EMSA; blunt
Zur (ScZur) wild type [8] = molecular target: T3, Zur (ScZur) wild type; test: EMSA; 400 nM Zur, 0-5 uM zinc; saturating state switched (hexamer); ITC: 20 mM HEPES pH 7.8, 150 mM NaCl, 0.5 mM TCEP, 25 C. EMSA: 20 mM Tris-HCl pH 7.8, 150 mM NaCl, 5 mM DTT, 0.1 mg/ml BSA, 5% glycerol, 0.1 ug poly(dI-dC) per; conditions: protein: recombinant; chain copies: 2; label: 6-FAM; blunt

“CTCCTCGTGTGTACCGGCGTCCGGCGACCCGGCGCCCGGATGCCAGTCAACTACGGGTAGGGGGTATCGGGCAACGCGGCACTGAACACCGTTGTCATGTGCCTTGACCTGCGGAAACGTTTCGCAGGTCAGAGTGTTGCGAGGATGCGGAGGGTGCGGCTTCCGCCGTCAGGGGGACCGGTCCGACGGGGCTCGTCCTGACCCTGTGCGAACAACGGCGGACACTGTGCGATGTCCGCGATGCCCGGTCTGGGGGCGCGGTTTGTC (double strand) [zitB promoter 267 bp footprinting probe]” was tested. Which binding [1] did it give?
Its binding is “binds more weakly”.

And the binding [2]?
Its binding is “binds”.

B1: zitB zurbox with znuA flanks (4 nt each) (dsDNA)
DNA 1: CAAGGTTGTTGACAACGGTGTTCATATTCGCGT
DNA 2: ACGCGAATATGAACACCGTTGTCAACAACCTTG
Does B1 bind (Zur (ScZur) wild type [3])?
Result: binds

B2: znuA 33 bp (zurbox site 1) (dsDNA)
DNA 1: TCCGCTTGTTGACAACGGTTTCCATATTTGTTG
DNA 2: CAACAAATATGGAAACCGTTGTCAACAAGCGGA
How did the Kd (Zur H36A [4]) turn out when B2 was run?
Its Kd is 3000 ± 900 nM.

What about the Kd (Zur (ScZur) wild type [5]) of the same molecule?
The Kd was 1200 ± 200 nM.

B3: zitB 33 bp (dsDNA)
DNA 1: CAAGGCACATGACAACGGTGTTCAGTGCCGCGT
DNA 2: ACGCGGCACTGAACACCGTTGTCATGTGCCTTG
B3 was tested. Which Kd (Zur H36A [6]) did it give?
The Kd was 3900 ± 1000 nM.

What about the Kd (Zur (ScZur) wild type [7]) of the same molecule?
The Kd was 600 ± 100 nM.

B4: znuA zurbox with zitB flanks (4 nt each) (dsDNA)
DNA 1: TCCGCCACATGACAACGGTTTCCAGTGCTGTTG
DNA 2: CAACAGCACTGGAAACCGTTGTCATGTGGCGGA
Does B4 bind (Zur (ScZur) wild type [8])?
Result: binds
